From the Immune Epitope Database (IEDB) come the findings set out here.

For test [1], the target named is HLA-A*02:01. Kind of test: IEDB peptide-MHC binding, purified MHC/direct/fluorescence; filed as Kd, often an IC50 or EC50 that approximates it; ≥ and ≤ were set here for values at or beyond the usual limits of such assays.
Test [2] addresses HLA-A*69:01. The description is as above.
The target of test [3] is HLA-B*15:01. The description is as above.
For test [4], the target named is HLA-A*30:02. Put plainly: IEDB peptide-MHC binding, purified MHC/competitive/radioactivity; filed as Kd, often an IC50 or EC50 that approximates it; ≥ and ≤ were set here for values at or beyond the usual limits of such assays.
The target of test [5] is HLA-A*26:01. Described as above. The note with it: source organism: Dengue virus 3 Martinique/1243/1999.
Test [6] has as its target HLA-A*30:01. The description is as above.
In test [7] the target is HLA-A*03:01. Kind of test: IEDB peptide-MHC binding, purified MHC/direct/fluorescence; filed as Kd, often an IC50 or EC50 that approximates it; ≥ and ≤ were set here for values at or beyond the usual limits of such assays.
The target in test [8] is HLA-A*01:01. The description is as above.
In test [9] the target is HLA-B*58:01. The description is as above.
Test [10] has as its target HLA-A*68:01. Kind of test: IEDB peptide-MHC binding, purified MHC/competitive/radioactivity; filed as Kd, often an IC50 or EC50 that approximates it; ≥ and ≤ were set here for values at or beyond the usual limits of such assays. The settings on record: source organism: Dengue virus 3 Martinique/1243/1999.
The target in test [11] is HLA-A*11:01. Kind of test: IEDB peptide-MHC binding, purified MHC/direct/fluorescence; filed as Kd, often an IC50 or EC50 that approximates it; ≥ and ≤ were set here for values at or beyond the usual limits of such assays.
Test [12] deals with HLA-B*40:01. The test is described as above. The note with it: source organism: Mycobacterium tuberculosis variant bovis.
Test [13] has as its target HLA-A*02:02. Kind of test: IEDB peptide-MHC binding, purified MHC/competitive/radioactivity; filed as Kd, often an IC50 or EC50 that approximates it; ≥ and ≤ were set here for values at or beyond the usual limits of such assays.
The target in test [14] is HLA-A*02:03. The description is as above.
For test [15], the target named is HLA-A*02:06. Described as above.
[16] abbreviates: source organism: Haemophilus influenzae.
The mark [17] stands for this setting: source organism: Dengue virus 3 Martinique/1243/1999.
Setting [18] is: source organism: Escherichia coli.
[19] abbreviates: source organism: Vaccinia virus WR.
The mark [20] stands for this setting: source organism: Dengue virus 4 Philippines/H241/1956.
Setting [21] is: source organism: Human immunodeficiency virus type 1 (isolate YU2).
Setting [22] is: source organism: Dengue virus 2 Jamaica/1409/1983.
Setting [23] is: source organism: Entamoeba histolytica HM-1:IMSS.
The mark [24] stands for this setting: source organism: Vibrio vulnificus.
Where [25] appears, read: source organism: Dengue virus 1 Brazil/97-11/1997.
[26] abbreviates: source organism: Lassa virus Josiah.
The mark [27] stands for this setting: source organism: Mammarenavirus tacaribeense.
[28] abbreviates: source organism: SARS coronavirus Tor2.

Take AMVPLVMVI: the Kd (usually the concentration at which binding is half-saturated) in [1] (setting [16]) turned out to be 435 nM; in test [2] (setting [16]) it was 3.43 µM; in [3] (setting [16]), 834 nM.
On to KMEALQRKY, for which the Kd in [4] (source organism: Dengue virus 2 16681-PDK53) is 61.4 nM.
Take GVVTKNGGY: the figures for the Kd in [5] and in [4] (setting [17]) were 1210 nM and not below 61300 nM, respectively.
For the sequence RILAYGPCL, the Kd in test [1] (setting [18]) is 418 nM; in test [2] (setting [18]), not below 20 µM.
In the case of HWFSRENSY, the Kd in test [4] (setting [17]) was determined as 246 nM.
As for LQRGRLPLV, in test [6] (setting [19]), the equilibrium dissociation constant (Kd) was determined as 93.3 nM.
For the sequence RFKKESSLA, the Kd in test [6] (setting [19]) was determined as 0.305 nM.
Turning to HLYYFITYY, the Kd in [7] (source organism: Giardia lamblia ATCC 50803) came to 150 nM.
VHSWEDIPY: the Kd in test [4] (setting [20]) was found to be 3360 nM.
As for RIKQIINMW, the Kd in test [8] (setting [21]) came to 5560 nM; in [7] (setting [21]), 3660 nM; in test [9] (setting [21]) it was 884 nM.
In the case of KAKGSRAIWY, the Kd in test [4] (setting [22]) was determined as 6.68 nM.
For the sequence KVYINHPFM, the Kd in test [6] (setting [19]) was 0.517 nM.
IGNEEFLDY: the Kd in test [4] (setting [17]) was determined as 961 nM.
As for KNENDQYIY, the Kd in test [4] (setting [22]) was found to be 0.15 nM.
DVFYLPPEK: the Kd in test [6] (setting [17]) is 1370 nM; in [10], 5.57 nM.
For GMLECGFPT, the figures for the Kd in [1] (setting [23]) and in [2] (setting [23]) were 4.8 nM and not below 5 µM, respectively.
Consider RSCTLPPLRY, for which, in [4] (setting [22]), the Kd was found to be 15.5 nM.
As to VQLLGRRFV, the Kd is not below 20000 nM in test [1] (setting [24]) and not below 20 µM in test [2] (setting [24]).
For the sequence IVREAIKRK, the Kd in [6] (setting [25]) worked out at 97.7 nM.
For KSDLQPPNY, the Kd in [8] (source organism: Homo sapiens) was 55 nM; in test [7] (source organism: Homo sapiens), 18700 nM; in [2] (source organism: Homo sapiens), 1.33 µM; in test [9] (source organism: Homo sapiens), 220 nM.
The sequence ISEKLRSGY had a Kd in [8] (source organism: Influenza A virus (A/Kinmen/645/04(H3N2))) of 467 nM.
As to VSNRCPICK, the dissociation constant (Kd) in test [7] (setting [26]) came to 882 nM; in test [11] (setting [26]), 0.0472 µM.
For DARVYADPMA, the Kd in [6] (setting [20]) came to 9270 nM.
As to TTTLEETKF, the Kd in test [11] (source organism: SARS-CoV1) was not below 109 µM; in [9] (source organism: SARS-CoV1), 11700 nM.
For the sequence GRLITVNPIV, the Kd in test [6] (setting [22]) is not below 20400 nM.
Consider MCFHQHLMY, for which the Kd was found to be 3330 nM in test [8] (source organism: Homo sapiens); 13600 nM in test [7] (source organism: Homo sapiens); 8.41 µM in [11] (source organism: Homo sapiens); 1440 nM in test [3] (source organism: Homo sapiens); 937 nM in [9] (source organism: Homo sapiens).
Turning to SGVLWDVPSP, the Kd in test [6] (setting [17]) came to 3670 nM.
The sequence SSSTEVETY displayed a Kd in test [9] (source organism: Influenza A virus (A/New York/124/2001(H3N2))) of 495 nM.
TTKATTQIA: the Kd in test [6] (setting [19]) came out at 6.52 nM.
On to FEGIAVLGL, for which, in test [12], the Kd came out at 67.6 nM.
Take TMKPHTFNK: the Kd in test [7] (source organism: Bacillus thuringiensis) was found to be 120 nM.
With KVKSYNYML, the Kd in test [6] (setting [19]) is 0.175 nM.
HTRDPQNAA: the Kd in test [6] (setting [19]) stood at 0.907 nM.
With KTISMLIEV, the Kd in test [6] (setting [19]) was 580 nM.
Take KLKIALAKG: the Kd in test [6] (setting [19]) worked out at 479 nM.
VLTLATGPIL: the Kd in [6] (source organism: Dengue virus 4 Dominica/814669/1981) came to 1330 nM.
As for KTSCSKNEA, the Kd in test [6] (setting [19]) is 72.2 nM.
For TFKNPHAKK, the Kd in test [6] (setting [22]) amounted to 1460 nM.
For ALGYTTEEI, the values for the Kd in test [1] (setting [16]) and in [2] (setting [16]) were 338 nM and 7.48 µM, respectively.
On to INISGYNLSL, for which the Kd in test [13] (setting [27]) was 179 nM; in test [14] (setting [27]), 1360 nM; in [15] (setting [27]), 11.4 µM.
Take SLCSCICTV: the Kd in test [13] (setting [28]) is 3.96 nM; in test [14] (setting [28]) it was 4.19 nM; in [15] (setting [28]) it was 0.00583 µM.
Turning to QVDQGIEYY, in [8] (source organism: Mycobacterium tuberculosis), the Kd was determined as 119 nM.
For RAVLDDGIY, the Kd in test [4] (setting [25]) was 44.8 nM.
Take SLYGRYNCK: the Kd in test [7] (setting [27]) worked out at 89 nM.
For ETENILTVL, in test [5], the Kd was determined as 2940 nM.
Take KQNHMQILK: the Kd in [7] (source organism: Francisella tularensis subsp. holarctica LVS) came to 156 nM.
Regarding EILRNYLRL, the results for the Kd in [13] (setting [19]), in test [14] (setting [19]) and in test [15] (setting [19]) were 14000 nM, 2090 nM and 13 µM, respectively.
On the same counts, the results for GLCNYGGILI are 152 nM, 3210 nM and 5.03 µM.
